B1: Pistol ribozyme (parent)
chain: GGGUCGUUGUUCCAUAAUCGCGUGGAUAUGGCACGCAAGUUUCUACCGGGCACCGUAAAUGUCCGACUGGAGCCGUUCGGGCGGCUAUAAACAGACCUCAGGCCCGAAGCGUGGCGGCACCUGCCGCCGGUGGUAAAAAAGAUCGGAAGAGCACACGUCU

Variants of: B1
Assay: aptazyme ON/OFF ratio, guanine; higher = stronger switching; co-transcriptional cleavage with and without guanine

| Variant | aptazyme ON/OFF ratio |
| --- | --- |
| U7A U8C G9U U10A U11G C12U C13G | 1.21 |
| U8C G9U U10G C12U C13U | 1.01 |
| U7G U8C C13A | 1.21 |
| U7C U8A G9A U10A U11A C12A C13U | 1.18 |
| U7G U8A G9C U10C C12U | 1.06 |
| U7G G9U U10C C12A | 2.03 |
| U7A U8A U10G C13G | 1.12 |
| U7A G9C U10A U11A C12U | 1.07 |
| U7C U8G G9U U11G C12A | 1.27 |
| C12A C13G | 1.27 |
| U7A U8G G9U U10C U11C C12G | 1.37 |
| U7G U11G C12U C13G | 1.12 |
| U7C U8G G9C U11A C12U C13U | 1.16 |
| U7A U8A U10C U11G C12A | 1.09 |
| G9U U11C C13G | 1.06 |
| U8G U10A C12A | 1.48 |
| U7C U8A G9A U11C C12G C13A | 1.16 |
| U7G U8A G9U U10G U11A C12A C13G | 1.07 |
| U7G U8G G9U U10C U11C C12U C13U | 1.37 |
| G9C U11A C12U C13A | 1.27 |
| U7A G9U U10C C13A | 1.09 |

| Variant | aptazyme ON/OFF ratio |
| --- | --- |
| U7A U8A G9U U11G C12A C13U | 1.22 |
| U7A U8C G9A U10C U11A C12G C13A | 1.1 |
| U8C G9U U10G U11C C12G C13U | 1.2 |
| U8A G9U U10A U11A C12G C13U | 1.38 |
| U7G U8G G9C U11A C12A C13G | 1.05 |
| U7G U8G U10A U11A C13G | 1.21 |
| U8A G9A U10A U11C C12G C13A | 1.16 |
| U7A G9U C13A | 1.29 |
| U7G U8G G9C U11A C12U | 1.53 |
| U8G G9A U10A U11C C12A C13A | 1.21 |
| U7C U8A U10C U11C | 1.05 |
| U7A U8G G9U U10A U11C C12A | 1.39 |
| U8C U10A U11G C12A C13A | 1.24 |
| G9C U10G U11C C12G C13A | 1.17 |
| U7A U8G G9U U11C | 1.45 |
| U8A G9A U10G U11A C13G | 1.02 |
| U7G U8G G9U U10G C12G C13A | 1.13 |
| U7G C12G | 1.25 |
| U7G U8G U11A C13U | 1.24 |
| U8G G9A U10C U11A C12A C13G | 1.11 |
| U7A G9C U10C C12G C13U | 1.05 |

| Variant | aptazyme ON/OFF ratio |
| --- | --- |
| U8G G9A C12U C13A | 1.25 |
| U7C U8G G9U U10C U11A C12A C13A | 1.26 |
| U7A U8C G9C U10A C13U | 1.06 |
| U7A G9C U10A U11G C12U | 1.07 |
| U7C U8G G9A U11C C13U | 1.05 |
| U8A U10A C12U | 1.11 |
| U7C G9C U10A U11G C12A C13G | 1.03 |
| U8G C12G C13A | 1.2 |
| U7C G9A U10A U11A C12G C13G | 1.22 |
| U7C U8A G9A U10G C12G | 1.25 |
| U7G G9U U10G U11C C12G | 1.48 |
| U7G U8G U11A C12A C13U | 1.15 |
| U11A C12A C13A | 1.59 |
| U7C U8A G9C U11G C13G | 1.05 |
| U7A U8A U10C U11C C12U C13U | 1.05 |
| U7C U8C G9A U10C U11G C12G C13A | 1.23 |
| U7G G9C U10A U11C C12G C13U | 1.29 |
| G9A C12A C13G | 1.12 |
| U8A G9C U10C U11G C12A | 1.07 |
| U7C U8G G9A U10G U11C C12A C13A | 1.35 |
| U7A U8A U10C U11G C13U | 1.17 |

| Variant | aptazyme ON/OFF ratio |
| --- | --- |
| U7G U8G G9A U11G C12A | 1.28 |
| U7G G9A U10A C12U C13U | 1.22 |
| U7C U8C U10C C13G | 1.24 |
| U7C U8C G9A U10A U11A C12U C13G | 1.13 |
| U7G U8A G9A U10A U11G C12G C13G | 1.12 |
| U7A U8G G9C U11G C12G C13U | 1.22 |
| U7A U8C G9U U10A C12U | 1.18 |
| U8A G9A C12U C13G | 1.17 |
| U8C G9U U10C U11G C12A C13U | 1.12 |
| U8C G9U U10C U11A | 1.44 |
| U7G U8A U10C C12A C13U | 1.34 |
| U7G G9C U10G U11C C12G C13U | 1.21 |
| U8A U10C C12A | 1.31 |
| U7G U8A U10A U11C C13A | 1.03 |
| U8G G9U U10A U11G C13G | 1.03 |
| U7G G9C U11A C13G | 1.19 |
| U7A U8A G9U U10C U11C C12A C13G | 1.12 |
| U7G U8A G9U U10G U11C | 1.04 |
| U7A U8C G9A U10G U11C C12A C13G | 1.25 |
| U7G U8G U10A U11C C13U | 1.08 |
| U7C G9A U10A U11C C12U C13U | 1.23 |

Source: the RNAGym collection of RNA variant scans (doi:10.1021/acssynbio.7b00057)
